Earlier results, collected in publication PMC3292877.

Target: ERK2 (Rattus norvegicus) (UniProt P63086)

- Kd: 7 nM
Substance: ERK2 (from UniProt P63086)
